Data on twelve molecules can be found in patent US20220259593A1, “CONTROL OF MAMMALIAN GENE DOSAGE USING CRISPR” (The Regents of the University of California, priority 2019, published 2022).

This data set concerns K562 CRISPRi cells. The data set is described as follows: Constant region variant library pooled growth screen, K562. The format is cell-based, human. Conditions: sgRNA constant region variants. An excerpt: We calculated relative activities for each targeting sequence:constant region pair by normalizing its phenotype to that of the targeting sequence paired with the unmodified constant region, identifying 409 constant region variants that on average conferred intermediate activity (0.1-0.9, FIG. 5B). Ten variants selected for individual evaluation also mediated intermediate levels of mRNA knockdown (FIG. 6B). Mapping the activities of constant region variants with single base substitutions onto the structure recapitulated known relationships between constant region structure and function (FIG. 5C).
The sequences in the library of modified constant regions were derived from the sgRNA (F+E) optimized sequence (23) modified to include a BlpI site (15). Each modified constant region was paired with 36 sgRNA targeting sequences (3 sgRNAs targeting each of 10 essential genes and six non-targeting negative control sgRNAs). The cloning strategy (described below) allowed the mutation of most positions in the sgRNA constant region. A variety of modifications were made, including substitutions of all single bases not in the BlpI restriction site (which is used for cloning), double substitutions including all substitutions at base-paired position pairs not before or in the BlpI site, and a variety of triple, quadruple, and sextuple substitutions, including base-pair-preserving substitutions at adjacent base-pairs.
The library was ordered and cloned in two parts. One part consisted of ˜100 modifications to the eight bases upstream of the BlpI restriction site. Constant region variants with mutations in this section were paired with each of the 36 targeting sequences, ordered as a pooled oligonucleotide library (Twist Biosciences), and cloned into pCRISPRia-v2 as described above. The second part consisted of ˜900 modifications to the 71 bases downstream of the BlpI restriction site. This part was cloned in two steps. First, all 36 targeting sequences were individually cloned into pCRISPRia-v2 as described above. The vectors were then pooled at an equimolar ratio and digested with BlpI (NEB) and XhoI (NEB). The modified constant region variants were ordered as a pooled oligonucleotide library (Twist Biosciences), PCR amplified with Phusion polymerase (NEB), digested with BlpI (NEB) and XhoI (NEB), and ligated into the digested vector pool, in a manner identical to previously published protocols and as described above, except for the different restriction enzymes.
Screens with the compact mismatched sgRNA library and the constant region library were conducted largely as described above, with smaller modifications during the screening procedure and an updated sequencing library preparation protocol. Briefly, the libraries were transduced in duplicate into K562 CRISPRi (both libraries) or HeLa CRISPRi cells (compact mismatched sgRNA library) as described above. K562 replicates were maintained separately in 0.15 to 0.3 L of RPMI-1640 in 0.3 L spinner flasks for the course of the screen. HeLa replicates were maintained in sets of ten 15-cm plates. Cells were selected with puromycin as described above (K562: 1 day of 0.75 μg/mL and 1 day of 0.85 μg/mL; HeLa: 2 days of 0.8 μg/mL and 1 day of 1 μg/mL). The remainder of the screen was carried out at >1000× library coverage (K562 compact mismatched sgRNA library: >2000×; HeLa compact mismatched sgRNA library: >1000×; K562 constant region library: >2000×). Multiple samples were harvested after 4 to 8 days of growth. For the drug screen, 10 μM lovastatin (ApexBio) or an equivalent volume of DMSO (vehicle) was added to flasks at t=0, and 3 days later cells were pelleted and re-suspended in fresh medium. Lovastatin (12 μM) or DMSO was again added after 5 and 9 days of growth, with media exchanges 3 days after drug supplementation. Multiple samples were harvested after 4 to 8 days for the K562 and HeLa growth screens. […]

[1] abbreviates: activity relative to the un-modified constant region cr995.

B1: cr284 (nucleic acid)
guide: GTTTAAGAGCTAAGCTGGAAACAGCATAGCAAGTTTAAATAAGGCTAGTCCGTTATCAACTTGAGAAAGTGGCACCAAGTTGGTGCT
modifications: listed as DNA, chemistry not fully specified
Consider B1, for which, under setting [1], the Mean relative activity is listed as 0.9497.

B2: cr285 (nucleic acid)
guide: GTTTAAGAGCTAAGCTGGAAAAAGCATAGCAAGTTTAAATAAGGCTAGTCCGTTATCAACTTGAAAAAGTGGCACCGAGTCGGTGCT
modifications: listed as DNA, chemistry not fully specified
Take B2: the Mean relative activity under setting [1] amounted to 0.9449.

B3: cr612 (nucleic acid)
guide: GTTTAAGAGCTAAGCTGGATACAGCATAGCAAGTTTAAATAAGGCTAGTCCGTTATCAACTTGAAAAAGTGGCACCGAGTCGGTGCT
modifications: listed as DNA, chemistry not fully specified
Regarding B3, the Mean relative activity (activity relative to the original, un-modified constant region cr995) came to 1.064.

B4: cr142 (nucleic acid)
guide: GTTTAAGAGCTAAGCTGGAAACAGCATAGCAAGTTTAAATAAGGCTAGTCCGTTATCAACTTGAAAAAGTGGCACCTAGTAGGTGCT
modifications: listed as DNA, chemistry not fully specified
As for B4, the Mean relative activity under setting [1] is listed as 0.9406.

B5: cr253 (nucleic acid)
guide: GTTTAAGAGCTAAGCTGGAAACAGCATAGCAAGTTTAAATAAGGCTAGTCCGTTATCAGCCTGAAAAGGCGGCACCTAGTAGGTGCT
modifications: listed as DNA, chemistry not fully specified
For B5, the Mean relative activity under setting [1] is 0.9384.

B6: cr553 (nucleic acid)
guide: GTTTAAGAGCTAAGCTGGAAACAGCATAGCAAGTTTAAATAAGGCTGGTCCGTTATCAACTTGATAAAGTGGCACCGAGTCGGTGCT
modifications: listed as DNA, chemistry not fully specified
Under setting [1], B6 registered a Mean relative activity of 0.9385.

B7: cr529 (nucleic acid)
guide: GTTTAAGAGCTAAGCTGGAAACAGCATAGCAAGTTTAAATAAGGCTAGTCCGTTATCAACTTGAAAAAGTGGCACTGAGTCAGTGCT
modifications: listed as DNA, chemistry not fully specified
Molecule B7 returned a Mean relative activity under setting [1] of 0.9488.

B8: cr718 (nucleic acid)
guide: GTTTAAGAGCTAAGCTGGAAACAGCATAGCAAGTTTAAATAAGGCTAGTCCGTTATCATCTTGAAAAAGAGGCCCCGAGTCGGGGCT
modifications: listed as DNA, chemistry not fully specified
Consider B8, for which the Mean relative activity under setting [1] is given as 0.9447.

B9: cr983 (nucleic acid)
guide: GTTTAAGAGCTAAGCTGGAAACAGCATAGCAAGTTTAAATAAGGCTAGTCCGTTATCAACTTGAAAAAGTGGTACCGAGTCGGTGCT
modifications: listed as DNA, chemistry not fully specified
Take B9: the Mean relative activity under setting [1] is 0.9491.

B10: cr908 (nucleic acid)
guide: GTTTAAGAGCTAAGCTGGAAACAGCATAGCAAGTTTAAATAAGGCTAGTCCGTTATCAACTTGAGAAAGTGGCATCGAGTCGATGCT
modifications: listed as DNA, chemistry not fully specified
B10: under setting [1], the Mean relative activity is given as 0.9455.

B11: cr703 (nucleic acid)
guide: GTTTAAGAGCTAAGCTGGAAACAGCATAGCAAGTTTAAATAAGGCTAGTCCGTTATCAACTTGAGGAAGTGGCACCGAGTCGGTGCT
modifications: listed as DNA, chemistry not fully specified
In the case of B11, the Mean relative activity under setting [1] is reported as 0.9472.

B12: cr231 (nucleic acid)
guide: GTTTAAGAGCTAAGCTGGAAACAGCATAGCAAGTTTAAATAAGGCTAGACCGTTATCAACTTGAGAAAGTGGCACCGAGTCGGTGCT
modifications: listed as DNA, chemistry not fully specified
On to B12, for which the Mean relative activity under setting [1] was 0.9485.
